The values below come from patent US20230414780A1 (VECT HORUS, published 2023).

Positions count from the first letter of the chain named.

B1: B8^V16 (VHH)
VHH: EVQLVESGGGVVQPGGSLRLSCAASGEIFSINFMRWYRQAPGKQREQVAGFTRDGSTNYPDSAKGRFTISRDNAKNTVYLQIDSLKPEDTAVYYCYMLDTWGQGTQVTVSS
B2: B8^V33 (VHH)
VHH: B1 VHH with Q47W, D99K
B3: B8^V32 (VHH)
VHH: B1 VHH with F29R, Q47W
B4: B8^V29 (VHH)
VHH: B1 VHH with Q47W, L98A
B5: B8^V31 (VHH)
VHH: B1 VHH with F29K, Q47W
B6: B8^V27 (VHH)
VHH: B1 VHH with Q47W, N58V
B7: C5^V32 (VHH)
VHH: EVQLVESGGGVVQPGGSLKLSCVASGTDFSINFIRWYSQAPGKQREFVAGFTATGNTNYADSMKGRLTISRDNTKNAVYLQIDSLKPEDTAVYYCYMLGKWGQGTQVTVSS

The target in the first assay is T1, human TfR ectodomain fused to a mouse IgG1 Fc fragment (human, UniProt P02786 89-760).
T1 construct: extracellular domain; ectodomain fused to the N-terminal end of the Fc, made in-house; not shown: mouse IgG1 Fc fragment
T1 sequence (P02786 89-760): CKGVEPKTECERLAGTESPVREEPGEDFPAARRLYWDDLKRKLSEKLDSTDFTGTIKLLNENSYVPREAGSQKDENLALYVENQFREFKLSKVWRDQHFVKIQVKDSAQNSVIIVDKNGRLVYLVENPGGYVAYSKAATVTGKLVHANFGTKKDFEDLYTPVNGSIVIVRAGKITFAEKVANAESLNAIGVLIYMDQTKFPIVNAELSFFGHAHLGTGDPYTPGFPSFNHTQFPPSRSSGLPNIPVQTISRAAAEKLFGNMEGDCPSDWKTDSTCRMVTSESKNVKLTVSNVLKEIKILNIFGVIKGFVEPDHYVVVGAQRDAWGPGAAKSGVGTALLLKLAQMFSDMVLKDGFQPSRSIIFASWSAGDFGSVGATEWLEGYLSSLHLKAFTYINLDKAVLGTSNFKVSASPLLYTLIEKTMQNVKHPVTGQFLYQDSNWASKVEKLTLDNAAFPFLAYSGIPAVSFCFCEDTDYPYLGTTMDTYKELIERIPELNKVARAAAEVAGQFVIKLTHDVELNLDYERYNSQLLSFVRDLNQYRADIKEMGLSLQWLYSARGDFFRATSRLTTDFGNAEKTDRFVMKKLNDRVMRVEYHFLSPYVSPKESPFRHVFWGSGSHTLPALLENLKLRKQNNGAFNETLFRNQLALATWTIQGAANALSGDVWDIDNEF
Description: SPR, kinetic. How it is done:
(§1) Binding properties of some VHHs were also evaluated using Surface Plasmon Resonance (SPR) experiments. The human, mouse and rhesus monkey TfR (having respectively GeneBank number NM_003234.2, NM_011638, NC_041755.1) ectodomains were fused to the N-terminal end of a mouse IgG1 Fc fragment and the recombinant proteins were produced and purified in-house. Interaction of VHHs with the receptors was tested using a Biacore T200 (GE Healthcare). Receptors were immobilized on an HC 1500M or a CM5 sensor chip (Xantec) either directly or on an anti-mouse IgG previously immobilized. VHHs were injected over flowcell by using the single-cycle kinetic or the multiple-cycle kinetic methods.
By koff is commonly meant the first-order rate constant of dissociation. By kon is commonly meant the rate constant with which the complex forms. B1 yielded a Kd of 12.8 nM, a koff of 0.0133 s⁻¹ and a kon of 1.03e+06 M⁻¹ s⁻¹.

As for B2, the Kd was 46.2 nM, the koff came out at 0.0328 s⁻¹ and the kon worked out at 710000 M⁻¹ s⁻¹.

B3 registered a Kd of 30.1 nM, a koff of 0.0126 s⁻¹ and a kon of 420000 M⁻¹ s⁻¹.

For B4, the Kd is 44 nM, the dissociation rate constant (koff) amounted to 0.0169 s⁻¹ and the kon amounted to 682000 M⁻¹ s⁻¹.

In turn, B5 had a Kd of 60.8 nM, a koff of 0.0221 s⁻¹ and a kon of 364000 M⁻¹ s⁻¹.

The molecule B6 displayed a Kd of 7.29 nM, a koff of 0.00722 s⁻¹ and a kon of 1.01e+06 M⁻¹ s⁻¹.

B7 displayed a Kd of 35.8 nM, a koff of 0.0247 s⁻¹ and a kon of 692000 M⁻¹ s⁻¹.

In the next assay the target is T2, rhesus monkey TfR ectodomain fused to a mouse IgG1 Fc fragment (rhesus monkey, UniProt I0FKY7 89-760).
T2 construct: extracellular domain; not shown: mouse IgG1 Fc fragment
Description: SPR, kinetic. As to the method: as §1
(In general: In SPR one partner is held on a chip, and binding of the other changes the refractive index at the surface.)
The molecule B1 came in with a Kd of 135 nM, a koff of 0.0438 s⁻¹ and a kon of 325000 M⁻¹ s⁻¹.

For the molecule B2, the Kd came to 73.4 nM, the dissociation rate constant (koff) worked out at 0.0509 s⁻¹ and the kon stood at 693000 M⁻¹ s⁻¹.

Consider B3, for which the Kd worked out at 32.7 nM, the koff came to 0.0418 s⁻¹ and the kon stood at 1.28e+06 M⁻¹ s⁻¹.

Take B4: the Kd was 202 nM, the koff stood at 0.0942 s⁻¹ and the kon is 1.16e+06 M⁻¹ s⁻¹.

As to B5, the Kd stood at 32.1 nM, the koff was found to be 0.0509 s⁻¹ and the on-rate (kon) was 1.59e+06 M⁻¹ s⁻¹.

The molecule B6 returned a Kd of 53.8 nM, a koff of 0.0206 s⁻¹ and a kon of 455000 M⁻¹ s⁻¹.

With B7, the Kd is 358 nM, the koff is 0.266 s⁻¹ and the kon was found to be 745000 M⁻¹ s⁻¹.

For another assay, the target named is T1, human TfR ectodomain fused to a mouse …. The experiment in a line: SPR, at equilibrium. As to the method:
as §1
In turn, B1 yielded a Kd of 76.3 nM.

Consider B2, for which the Kd was 46.5 nM.

B3 showed a Kd of 36.5 nM.

Molecule B4 gave a Kd of 21.8 nM.

The molecule B5 came in with a Kd of 63.8 nM.

Regarding B6, the Kd came to 3.22 nM.

As to B7, the Kd was 38.6 nM.

The target in another assay is T2, rhesus monkey TfR ectodomain fused to a …. The experiment in a line: SPR, at equilibrium. How it is done:
as §1
Consider B1, for which the Kd amounted to 222 nM.

In the case of B2, the Kd amounted to 86 nM.

In the case of B3, the Kd is 35.1 nM.

B4 displayed a Kd of 100 nM.

On to B5, for which the Kd came out at 35.4 nM.

In the case of B6, the Kd turned out to be 36.8 nM.

For the molecule B7, the Kd came out at 265 nM.

The target of the next assay is T3, human transferrin receptor (hTfR) fused to EGFP, on CHO cells (human, UniProt P02786 1-760).
T3 construct: whole, on cells; also called human TfR; CHO-hTfR-EGFP; not shown: EGFP from pEGFP-C1 vector, fused to the N-terminal (intracellular) end of hTfR
T3 sequence (P02786 whole entry, the tested form may be a part): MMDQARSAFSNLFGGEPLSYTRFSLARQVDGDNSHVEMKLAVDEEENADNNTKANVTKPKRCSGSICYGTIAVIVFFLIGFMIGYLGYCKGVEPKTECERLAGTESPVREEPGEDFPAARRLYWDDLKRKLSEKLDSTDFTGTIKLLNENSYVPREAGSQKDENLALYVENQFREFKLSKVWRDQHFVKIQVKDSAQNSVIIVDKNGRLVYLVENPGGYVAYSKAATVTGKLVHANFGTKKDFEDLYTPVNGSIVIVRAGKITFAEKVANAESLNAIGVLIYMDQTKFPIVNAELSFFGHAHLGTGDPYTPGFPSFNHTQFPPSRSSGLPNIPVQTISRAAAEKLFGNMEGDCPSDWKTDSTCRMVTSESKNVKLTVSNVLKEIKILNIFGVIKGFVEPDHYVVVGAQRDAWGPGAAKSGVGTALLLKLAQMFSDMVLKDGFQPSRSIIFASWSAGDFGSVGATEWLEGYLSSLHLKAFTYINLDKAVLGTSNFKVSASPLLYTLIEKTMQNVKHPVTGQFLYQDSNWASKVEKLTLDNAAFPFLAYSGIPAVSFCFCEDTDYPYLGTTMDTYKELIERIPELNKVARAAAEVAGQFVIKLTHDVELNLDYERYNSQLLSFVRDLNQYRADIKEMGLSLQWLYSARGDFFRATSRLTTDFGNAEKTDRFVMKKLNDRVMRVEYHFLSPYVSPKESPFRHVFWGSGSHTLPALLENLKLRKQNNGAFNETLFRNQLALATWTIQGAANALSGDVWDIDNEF
Description: apparent Kd, flow cytometry, CHO cells. The procedure, abridged: (§2)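 CHO cells expressing TfR-EGFP fusions, blocked in PBS/BSA 2%, then incubated with increasing VHH concentrations for 1 hr at 4° C. Bound VHH detected via anti-6His antibody and Alexa647 secondary, cells PFA-fixed, read by flow cytometry. Apparent Kd from nonlinear fit.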
A general note: A flow cytometer gives signals particle by particle.
In the case of B1, the Kd turned out to be 6.2 nM.

For B2, the Kd was determined as 50 nM.

On to B3, for which the Kd worked out at 7.1 nM.

In the case of B4, the Kd amounted to 9 nM.

For the molecule B5, the Kd amounted to 14 nM.

Turning to B6, the Kd was 6.8 nM.

With B7, the Kd is 66 nM.

The target of a further assay is T4, mouse transferrin receptor (mTfR) fused to EGFP, on CHO cells (mouse, UniProt Q62351 1-763).
T4 construct: whole, on cells; also called mouse TfR; CHO-mTfR-EGFP; not shown: EGFP
T4 sequence (Q62351 whole entry, the tested form may be a part): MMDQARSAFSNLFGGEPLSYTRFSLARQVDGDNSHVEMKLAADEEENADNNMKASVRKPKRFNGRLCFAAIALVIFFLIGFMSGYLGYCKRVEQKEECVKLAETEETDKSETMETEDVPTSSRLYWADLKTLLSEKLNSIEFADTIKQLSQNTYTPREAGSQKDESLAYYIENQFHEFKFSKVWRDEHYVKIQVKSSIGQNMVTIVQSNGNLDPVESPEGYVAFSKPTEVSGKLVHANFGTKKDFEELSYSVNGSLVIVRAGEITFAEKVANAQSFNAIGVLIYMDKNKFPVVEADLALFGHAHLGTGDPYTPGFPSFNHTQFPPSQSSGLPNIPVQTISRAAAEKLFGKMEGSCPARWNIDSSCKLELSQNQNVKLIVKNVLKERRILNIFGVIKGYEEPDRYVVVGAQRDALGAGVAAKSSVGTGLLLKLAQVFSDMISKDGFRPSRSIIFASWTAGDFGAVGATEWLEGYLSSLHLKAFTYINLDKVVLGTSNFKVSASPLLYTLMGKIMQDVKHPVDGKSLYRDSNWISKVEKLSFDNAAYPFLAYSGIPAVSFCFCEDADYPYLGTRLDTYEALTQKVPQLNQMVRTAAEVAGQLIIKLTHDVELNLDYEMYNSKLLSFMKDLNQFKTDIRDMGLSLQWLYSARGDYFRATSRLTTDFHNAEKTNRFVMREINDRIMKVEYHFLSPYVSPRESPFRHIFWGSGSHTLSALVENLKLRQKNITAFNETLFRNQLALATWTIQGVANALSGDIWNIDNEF
Description: apparent Kd, flow cytometry, CHO cells. An outline of the steps: as §2
For the molecule B1, the Kd was 3.6 nM.

As for B2, the Kd came to 230 nM.

Consider B3, for which the Kd turned out to be 1210 nM.

In the case of B4, the Kd came out at 1670 nM.

For the molecule B5, the Kd stood at 1690 nM.

For B6, the Kd came out at 760 nM.

As for B7, the Kd came to 1740 nM.

The next assay has as its target T5, rhesus monkey transferrin receptor (rhTfR) fused to EGFP, on CHO cells (rhesus monkey).
T5 construct: whole, on cells; also called rhesus monkey TfR
Description: apparent Kd, flow cytometry, CHO cells. An outline of the steps: as §2
For the molecule B1, the Kd was determined as 307 nM.

Turning to B2, the Kd was found to be 170 nM.

For B3, the Kd turned out to be 14 nM.

With B4, the Kd was determined as 72 nM.

With B5, the Kd came out at 20 nM.

For B6, the Kd turned out to be 16 nM.

Take B7: the Kd turned out to be 653 nM.
